Assay results published in the supplement of paper PMC10567573.

B1: PSD2 (parent)
chain: PLMGETQERERVLTHFSRRYCQCN

Variants of: B1
Experiment: protein stability index of a GFP-peptide fusion (GPS, HEK-293T) (PSI 1-6); higher = more stable
Conditions: c terminus: a fixed tail appended
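Also: lentivirally expressed fusions sorted by FACS into six bins by GFP to DsRed ratio, PSI derived from sequencing read proportions per bin multiplied by bin number.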

Variant	protein stability index
R19I	2.54
R19G	3.71
R19K	3.17
R19W	2.14
P1A	1.96
P1V	2.4
P1S	2.98
P1N	2.97
P1R	4.31
R9V	2.94
R9L	2.41
R9N	4.17
R9D	3.79
R9H	3.23
R9G	2.98
Q7D	3.72
Q7Y	2.82
Q7V	3.27
Q7C	3.6
R18P	3.01
R18G	4.12
R18Q	2.77

Variant	protein stability index
R18L	2.24
M3R	2.44
M3C	2.61
M3T	4.68
M3I	2.37
M3E	3.3
M3F	2.77
E8G	2.35
E8K	2.12
E8I	2.69
E8C	2.17
E8H	1.97
E8L	1.89
E8S	2.39
E8F	1.67
E8D	3.46
C21H	2.62
C21E	3.81
C21Q	3.67
C21G	4.23
V12S	3.03
V12G	3.1

Variant	protein stability index
V12R	3.15
V12Q	3.6
V12T	3.73
V12M	2.85
V12C	4.07
V12K	2.96
V12D	2.81
F16D	4.44
F16V	3
F16P	3.9
F16L	3.79
F16C	4.41
Q22L	2.39
Q22G	2.29
Q22P	2.71
Q22K	3.02
Q22N	3.18
Q22R	3.98
Q22V	1.69
Q22S	3.04
L13I	3.55
L13P	3.19

Variant	protein stability index
L13K	3.57
L13N	2.93
T6V	2.44
T6P	3.02
T6N	2.21
T6K	2.14
T6F	2.22
T6Q	2.97
N24L	2.71
N24C	3.05
N24T	3.74
N24V	2.69
N24Y	2.22
S17W	1.52
S17L	1.99
S17T	2.15
G4Y	2.06
G4L	2.02
G4Q	2.43
G4H	2.93
L2T	3.01
L2F	2.41

Variant	protein stability index
L2A	3.59
L2D	3.37
L2C	3.52
L2S	3.19
L2Q	3.35
L2K	2.57
T14V	2.69
T14P	2.88
T14E	2.93
T14Q	2.56
T14D	2.92
T14Y	1.71
Y20G	3.86
Y20N	3.81
Y20S	3.84
Y20P	3.72
Y20R	3.95
Y20E	4.57
Y20F	2.96
E5C	1.32
E5K	2.2
E5R	2.39

Variant	protein stability index
E5G	2.46
R11K	2.87
R11F	1.85
R11A	3.42
R11C	3.88
R11Q	3.46
E10T	2.07
E10P	2.03
E10W	1.87
E10I	2.1
E10S	2.14
C23V	3.56
C23Y	2.85
C23S	3.87
C23K	4.92
C23P	4.09
H15F	1.47
H15W	1.2
H15K	3.41
H15I	2.32
H15S	3.18
H15A	2.62
